Test results reported in article PMC7849165 (The EMBO Journal, 2020).
No end group written: not given here.

Target: T1, N-terminal cytosolic domain of Sec62 (Sec62 domain; residues 18-145) (S. cerevisiae, UniProt P21825 18-145)
T1 sequence (looked up): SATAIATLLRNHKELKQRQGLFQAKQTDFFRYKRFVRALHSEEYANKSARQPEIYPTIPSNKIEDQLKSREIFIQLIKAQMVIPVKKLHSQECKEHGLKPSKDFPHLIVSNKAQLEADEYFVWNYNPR
Test: pull-down

binding result: binds
B1: Sec63-C1 peptide (residues 621-647 of Sec63), biotin-labeled (peptide, UniProt P14906 621-647, looked up)
peptide: VYSEEDDEYSTDDDETESDDESDASDY
modifications: also: biotin label, position not given here
